Reference: IntAct's records for PubMed 31515488

B1: Cyclic AMP-responsive element-binding protein 3-like protein 1 (Homo sapiens), Q96BA8 (parent)
chain: MDAVLEPFPADRLFPGSSFLDLGDLNESDFLNNAHFPEHLDHFTENMEDFSNDLFSSFFDDPVLDEKSPLLDMELDSPTPGIQAEHSYSLSGDSAPQSPLVPIKMEDTTQDAEHGAWALGHKLCSIMVKQEQSPELPVDPLAAPSAMAAAAAMATTPLLGLSPLSRLPIPHQAPGEMTQLPVIKAEPLEVNQFLKVTPEDLVQMPPTPPSSHGSDSDGSQSPRSLPPSSPVRPMARSSTAISTSPLLTAPHKLQGTSGPLLLTEEEKRTLIAEGYPIPTKLPLTKAEEKALKRVRRKIKNKISAQESRRKKKEYVECLEKKVETFTSENNELWKKVETLENANRTLLQQLQKLQTLVTNKISRPYKMAATQTGTCLMVAALCFVLVLGSLVPCLPEFSSGSQTVKEDPLAADGVYTASQMPSRSLLFYDDGAGLWEDGRSTLLPMEPPDGWEINPGGPAEQRPRDHLQHDHLDSTHETTKYLSEAWPKDGGNGTSPDFSHSKEWFHDRDLGPNTTIKLS
partner: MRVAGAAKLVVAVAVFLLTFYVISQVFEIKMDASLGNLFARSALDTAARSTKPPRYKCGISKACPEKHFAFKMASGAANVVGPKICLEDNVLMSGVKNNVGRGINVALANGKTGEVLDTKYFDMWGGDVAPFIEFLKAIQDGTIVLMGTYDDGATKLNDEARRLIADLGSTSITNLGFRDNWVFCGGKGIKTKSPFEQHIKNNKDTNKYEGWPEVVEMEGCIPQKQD
B2: Golgin-45 (Homo sapiens), Q9H2G9 (parent)
chain: MTTKNLETKVTVTSSPIRGAGDGMETEEPPKSVEVTSGVQSRKHHSLQSPWKKAVPSESPGVLQLGKMLTEKAMEVKAVRILVPKAAITHDIPNKNTKVKSLGHHKGEFLGQSEGVIEPNKELSEVKNVLEKLKNSERRLLQDKEGLSNQLRVQTEVNRELKKLLVASVGDDLQYHFERLAREKNQLILENEALGRNTAQLSEQLERMSIQCDVWRSKFLASRVMADELTNSRAALQRQNRDAHGAIQDLLSEREQFRQEMIATQKLLEELLVSLQWGREQTYSPSVQPHSTAELALTNHKLAKAVNSHLLGNVGINNQKKIPSTVEFCSTPAEKMAETVLRILDPVTCKESSPDNPFFESSPTTLLATKKNIGRFHPYTRYENITFNCCNHCRGELIAL
partner: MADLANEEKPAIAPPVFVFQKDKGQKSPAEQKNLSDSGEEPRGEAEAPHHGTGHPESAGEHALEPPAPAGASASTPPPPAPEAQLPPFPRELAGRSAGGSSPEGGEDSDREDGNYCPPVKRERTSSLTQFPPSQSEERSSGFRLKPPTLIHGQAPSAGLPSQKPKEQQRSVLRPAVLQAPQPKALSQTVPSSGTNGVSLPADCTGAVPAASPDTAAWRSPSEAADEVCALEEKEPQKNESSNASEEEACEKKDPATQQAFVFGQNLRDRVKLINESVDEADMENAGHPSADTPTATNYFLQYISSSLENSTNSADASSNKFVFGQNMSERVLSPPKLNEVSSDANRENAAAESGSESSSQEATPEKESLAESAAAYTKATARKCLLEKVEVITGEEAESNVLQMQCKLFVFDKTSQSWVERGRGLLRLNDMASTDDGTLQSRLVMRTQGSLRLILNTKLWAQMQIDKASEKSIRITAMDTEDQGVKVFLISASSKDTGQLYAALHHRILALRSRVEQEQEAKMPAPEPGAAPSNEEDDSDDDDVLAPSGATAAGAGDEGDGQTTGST
B3: Ubiquitin thioesterase OTUB2 (Homo sapiens), Q96DC9 (parent)
chain: MSETSFNLISEKCDILSILRDHPENRIYRRKIEELSKRFTAIRKTKGDGNCFYRALGYSYLESLLGKSREIFKFKERVLQTPNDLLAAGFEEHKFRNFFNAFYSVVELVEKDGSVSSLLKVFNDQSASDHIVQFLRLLTSAFIRNRADFFRHFIDEEMDIKDFCTHEVEPMATECDHIQITALSQALSIALQVEYVDEMDTALNHHVFPEAATPSVYLLYKTSHYNILYAADKH
partner: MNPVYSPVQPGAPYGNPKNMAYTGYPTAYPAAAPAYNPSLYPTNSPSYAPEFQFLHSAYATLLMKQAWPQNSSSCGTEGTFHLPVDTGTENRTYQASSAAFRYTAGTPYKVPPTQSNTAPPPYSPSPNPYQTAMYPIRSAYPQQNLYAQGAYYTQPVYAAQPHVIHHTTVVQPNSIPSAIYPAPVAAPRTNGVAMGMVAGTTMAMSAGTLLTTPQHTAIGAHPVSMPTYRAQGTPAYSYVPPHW
B4: H/ACA ribonucleoprotein complex subunit 3 (Homo sapiens), Q9NPE3 (parent)
chain: MFLQYYLNEQGDRVYTLKKFDPMGQQTCSAHPARFSPDDKYSRHRITIKKRFKVLMTQQPRPVL
partner: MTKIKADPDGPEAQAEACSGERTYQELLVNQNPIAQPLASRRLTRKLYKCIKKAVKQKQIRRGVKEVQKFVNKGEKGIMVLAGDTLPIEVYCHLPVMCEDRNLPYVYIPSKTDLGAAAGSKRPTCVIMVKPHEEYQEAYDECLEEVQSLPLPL
B5: AP-4 complex subunit beta-1 (Homo sapiens), Q9Y6B7 (parent)
chain: MPYLGSEDVVKELKKALCNPHIQADRLRYRNVIQRVIRYMTQGLDMSGVFMEMVKASATVDIVQKKLVYLYMCTYAPLKPDLALLAINTLCKDCSDPNPMVRGLALRSMCSLRMPGVQEYIQQPILNGLRDKASYVRRVAVLGCAKMHNLHGDSEVDGALVNELYSLLRDQDPIVVVNCLRSLEEILKQEGGVVINKPIAHHLLNRMSKLDQWGQAEVLNFLLRYQPRSEEELFDILNLLDSFLKSSSPGVVMGATKLFLILAKMFPHVQTDVLVRVKGPLLAACSSESRELCFVALCHVRQILHSLPGHFSSHYKKFFCSYSEPHYIKLQKVEVLCELVNDENVQQVLEELRGYCTDVSADFAQAAIFAIGGIARTYTDQCVQILTELLGLRQEHITTVVVQTFRDLVWLCPQCTEAVCQALPGCEENIQDSEGKQALIWLLGVHGERIPNAPYVLEDFVENVKSETFPAVKMELLTALLRLFLSRPAECQDMLGRLLYYCIEEEKDMAVRDRGLFYYRLLLVGIDEVKRILCSPKSDPTLGLLEDPAERPVNSWASDFNTLVPVYGKAHWATISKCQGAERCDPELPKTSSFAASGPLIPEENKERVQELPDSGALMLVPNRQLTADYFEKTWLSLKVAHQQVLPWRGEFHPDTLQMALQVVNIQTIAMSRAGSRPWKAYLSAQDDTGCLFLTELLLEPGNSEMQISVKQNEARTETLNSFISVLETVIGTIEEIKS
partner: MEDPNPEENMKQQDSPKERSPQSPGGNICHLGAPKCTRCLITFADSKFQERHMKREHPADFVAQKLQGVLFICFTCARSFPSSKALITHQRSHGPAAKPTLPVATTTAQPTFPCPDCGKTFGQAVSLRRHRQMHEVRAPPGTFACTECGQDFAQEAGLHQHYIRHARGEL
B6: EF-hand domain-containing protein 1 (Homo sapiens), Q5JVL4 (parent)
chain: MVSNPVHGLPFLPGTSFKDSTKTAFHRSQTLSYRNGYAIVRRPTVGIGGDRLQFNQLSQAELDELASKAPVLTYGQPKQAPPADFIPAHVAFDKKVLKFDAYFQEDVPMSTEEQYRIRQVNIYYYLEDDSMSVIEPVVENSGILQGKLIKRQRLAKNDRGDHYHWKDLNRGINITIYGKTFRVVDCDQFTQVFLESQGIELNPPEKMALDPYTELRKQPLRKYVTPSDFDQLKQFLTFDKQVLRFYAIWDDTDSMYGECRTYIIHYYLMDDTVEIREVHERNDGRDPFPLLMNRQRVPKVLVENAKNFPQCVLEISDQEVLEWYTAKDFIVGKSLTILGRTFFIYDCDPFTRRYYKEKFGITDLPRIDVSKREPPPVKQELPPYNGFGLVEDSAQNCFALIPKAPKKDVIKMLVNDNKVLRYLAVLESPIPEDKDRRFVFSYFLATDMISIFEPPVRNSGIIGGKYLGRTKVVKPYSTVDNPVYYGPSDFFIGAVIEVFGHRFIILDTDEYVLKYMESNAAQYSPEALASIQNHVRKREAPAPEAESKQTEKDPGVQELEALIDTIQKQLKDHSCKDNIREAFQIYDKEASGYVDRDMFFKICESLNVPVDDSLVKELIRMCSHGEGKINYYNFVRAFSN
partner: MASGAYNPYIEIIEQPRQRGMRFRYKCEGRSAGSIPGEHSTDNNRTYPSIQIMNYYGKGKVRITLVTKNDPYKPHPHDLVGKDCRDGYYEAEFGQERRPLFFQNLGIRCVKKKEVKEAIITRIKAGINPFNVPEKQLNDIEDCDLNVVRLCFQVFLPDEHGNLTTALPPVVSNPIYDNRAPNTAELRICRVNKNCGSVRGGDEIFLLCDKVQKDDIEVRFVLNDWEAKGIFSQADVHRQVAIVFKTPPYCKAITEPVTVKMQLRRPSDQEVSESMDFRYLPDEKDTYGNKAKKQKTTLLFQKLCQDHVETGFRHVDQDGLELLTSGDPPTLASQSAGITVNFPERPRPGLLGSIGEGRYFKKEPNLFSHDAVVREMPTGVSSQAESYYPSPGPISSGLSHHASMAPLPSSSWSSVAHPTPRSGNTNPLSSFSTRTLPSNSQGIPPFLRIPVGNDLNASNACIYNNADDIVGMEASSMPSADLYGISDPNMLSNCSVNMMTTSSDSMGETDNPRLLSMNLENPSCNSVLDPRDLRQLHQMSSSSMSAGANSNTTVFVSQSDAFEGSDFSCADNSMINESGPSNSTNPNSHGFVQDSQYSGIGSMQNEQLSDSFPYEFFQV
B7: Keratin, type II cuticular Hb6 (Homo sapiens), O43790 (parent)
chain: MTCGSYCGGRAFSCISACGPRPGRCCITAAPYRGISCYRGLTGGFGSHSVCGGFRAGSCGRSFGYRSGGVCGPSPPCITTVSVNESLLTPLNLEIDPNAQCVKQEEKEQIKSLNSRFAAFIDKVRFLEQQNKLLETKLQFYQNRECCQSNLEPLFEGYIETLRREAECVEADSGRLASELNHVQEVLEGYKKKYEEEVSLRATAENEFVALKKDVDCAYLRKSDLEANVEALIQEIDFLRRLYEEEIRVLQSHISDTSVVVKLDNSRDLNMDCIIAEIKAQYDDIVTRSRAEAESWYRSKCEEMKATVIRHGETLRRTKEEINELNRMIQRLTAEVENAKCQNSKLEAAVAQSEQQGEAALSDARCKLAELEGALQKAKQDMACLIREYQEVMNSKLGLDIEIATYRRLLEGEEQRLCEGVGSVNVCVSSSRGGVVCGDLCASTTAPVVSTRVSSVPSNSNVVVGTTNACAPSARVGVCGGSCKRC
B8: Protein FAM9B (Homo sapiens), Q8IZU0 (parent)
chain: MAAWGKKHAGKDPVRDECEERNRFTETREEDVTDEHGEREPFAETDEHTGANTKKPEDTAEDLTAKRKRMKMDKTCSKTKNKSKHALRKKQLKRQKRDYIHSLKLLNVLEEYITDEQKEEEEEEGEEEELIRIFQEQQKKWQQYRSVRRERLKEMKLLRDQFVKALEDFEDLCDRVFSDEDSELDN
partner: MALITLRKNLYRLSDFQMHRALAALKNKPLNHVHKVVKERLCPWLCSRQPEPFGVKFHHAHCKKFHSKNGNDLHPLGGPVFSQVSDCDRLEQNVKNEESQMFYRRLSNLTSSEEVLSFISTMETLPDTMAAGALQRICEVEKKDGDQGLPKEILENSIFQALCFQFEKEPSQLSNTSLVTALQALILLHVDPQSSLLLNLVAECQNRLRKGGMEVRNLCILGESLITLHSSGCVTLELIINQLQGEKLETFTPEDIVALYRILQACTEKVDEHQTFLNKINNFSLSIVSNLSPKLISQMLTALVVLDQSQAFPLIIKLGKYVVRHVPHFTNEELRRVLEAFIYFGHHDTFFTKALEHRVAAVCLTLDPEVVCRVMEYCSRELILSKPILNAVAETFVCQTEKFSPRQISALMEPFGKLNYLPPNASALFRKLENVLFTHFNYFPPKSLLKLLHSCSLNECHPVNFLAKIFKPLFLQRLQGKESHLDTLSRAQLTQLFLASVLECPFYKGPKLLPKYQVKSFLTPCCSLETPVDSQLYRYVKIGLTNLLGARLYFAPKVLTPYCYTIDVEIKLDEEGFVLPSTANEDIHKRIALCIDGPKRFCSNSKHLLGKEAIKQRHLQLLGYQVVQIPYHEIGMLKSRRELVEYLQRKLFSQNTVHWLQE

Variants of: B1
Conditions: with fam3c_human FAM3C

Row | Variant | effect of a mutation on the interaction
1 | I516S | with no effect

Variants of: B2
Conditions: with ranb3_human RANBP3, Q9H6Z4

Row | Variant | effect of a mutation on the interaction
2 | Q40R | with no effect
3 | H45R | with no effect

Variants of: B3
Conditions: with FAM168A

Row | Variant | effect of a mutation on the interaction
4 | R146P | disrupting interaction strength
5 | V78I | with no effect

Variants of: B4
Conditions: with nhp2_human NHP2, Q9NX24

Row | Variant | effect of a mutation on the interaction
6 | D12H | with no effect

Variants of: B5
Conditions: with zn576_human ZNF576, Q9H609

Row | Variant | effect of a mutation on the interaction
7 | L480S | with no effect

Variants of: B6
Conditions: with rel_human REL

Row | Variant | effect of a mutation on the interaction
8 | Y102C | with no effect
9 | F229L | with no effect
10 | R159W | with no effect

Variants of: B7
Conditions: with KRT15, P19012
KRT15, P19012, sequence (P19012 whole entry): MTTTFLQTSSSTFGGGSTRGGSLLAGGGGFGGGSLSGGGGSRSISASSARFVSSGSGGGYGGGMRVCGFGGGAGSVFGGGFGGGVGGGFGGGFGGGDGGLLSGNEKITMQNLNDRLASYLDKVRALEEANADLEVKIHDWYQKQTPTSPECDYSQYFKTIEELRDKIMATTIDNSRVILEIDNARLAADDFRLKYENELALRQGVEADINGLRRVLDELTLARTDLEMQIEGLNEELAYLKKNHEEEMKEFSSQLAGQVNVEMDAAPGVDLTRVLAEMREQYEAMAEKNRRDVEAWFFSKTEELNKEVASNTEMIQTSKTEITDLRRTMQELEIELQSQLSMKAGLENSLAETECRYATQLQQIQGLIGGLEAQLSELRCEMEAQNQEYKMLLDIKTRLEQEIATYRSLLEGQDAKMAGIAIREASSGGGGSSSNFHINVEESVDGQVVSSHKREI

Row | Variant | effect of a mutation on the interaction
11 | R327C | with no effect
12 | R408H | with no effect

Variants of: B8
Conditions: with fakd3_human FASTKD3, Q14CZ7

Row | Variant | effect of a mutation on the interaction
13 | R23H | with no effect
